Article PMC10235082
pKd: −log10 of the molar value.

Experiments:
human FcRn (human) = human FcRn (human) (UniProt P55899); test: SPR; Biacore T200; FcRn immobilised on CM5 sensor chip, IVIG (from 500 nM) or rhIgG1 Fc (from 250 nM) injected, two-fold serial dilution; regeneration 100 mM Tris-HCl; multicycle kinetics model (methods), steady state equilibrium model (legend of Fig. 4)
human FcγRIA (human) = human FcγRIA (human) (UniProt P12314); test: SPR; Biacore T200; FcγRs immobilised on CM5 sensor chip, IVIG or rhIgG1 Fc injected; three-fold serial dilution (FcγRIA from 300 nM; FcγRIIA from 20 μM; FcγRIIIA from 3 μM IVIG and 300 nM hIgG1 Fc); regeneration 10 mM glycine; single cycle kinetics model
[1] = molecular target: human FcγRIIIA F176V (human) (UniProt P08637); test: as above
UniProt P08637, sequence (P08637 17-208 F176V): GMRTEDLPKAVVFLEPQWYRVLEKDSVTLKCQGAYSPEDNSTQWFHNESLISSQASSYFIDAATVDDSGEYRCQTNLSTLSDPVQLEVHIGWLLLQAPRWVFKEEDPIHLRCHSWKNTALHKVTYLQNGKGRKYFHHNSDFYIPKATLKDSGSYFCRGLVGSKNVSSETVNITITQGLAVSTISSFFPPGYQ

UniProt P55899, sequence (P55899 24-297, chain 1 of 2): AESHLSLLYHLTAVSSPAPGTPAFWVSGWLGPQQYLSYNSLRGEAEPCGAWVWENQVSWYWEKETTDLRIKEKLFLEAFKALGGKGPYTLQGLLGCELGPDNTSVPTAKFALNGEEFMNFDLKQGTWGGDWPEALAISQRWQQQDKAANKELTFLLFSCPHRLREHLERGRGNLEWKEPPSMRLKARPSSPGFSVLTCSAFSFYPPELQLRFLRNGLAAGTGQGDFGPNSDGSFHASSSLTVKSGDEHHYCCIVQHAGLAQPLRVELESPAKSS
UniProt P55899, sequence (P61769 21-119, chain 2 of 2, further chain): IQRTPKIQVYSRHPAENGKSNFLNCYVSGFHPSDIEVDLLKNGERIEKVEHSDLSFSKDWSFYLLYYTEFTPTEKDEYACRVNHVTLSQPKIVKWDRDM
UniProt P12314, sequence (P12314 16-292): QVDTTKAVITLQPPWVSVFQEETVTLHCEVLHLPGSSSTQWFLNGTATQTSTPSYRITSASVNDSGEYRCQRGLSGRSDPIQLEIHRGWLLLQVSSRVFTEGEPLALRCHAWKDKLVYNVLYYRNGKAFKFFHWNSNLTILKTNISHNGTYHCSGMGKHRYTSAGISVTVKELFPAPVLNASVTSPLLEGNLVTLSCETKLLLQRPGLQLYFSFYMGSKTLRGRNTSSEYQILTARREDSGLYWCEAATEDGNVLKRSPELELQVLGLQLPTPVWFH

“recombinant human IgG1 Fc derived from ALB::hIgG1 Fc genome-edited chickens (domain or fragment)” gave a pKd (human FcRn (human)) of 8.04, a pKd (human FcγRIA (human)) of 8.89 and a pKd [1] of 8.00.
